Patent US20180296694A1 (IMMUNOGEN, published 2018)

B1: Mov19v1.6-GMBS-dAlalAla-PAB-DM1 (conjugate 4b) (antibody, human IgG1, kappa, V domains shown)
VH: QVQLVQSGAEVVKPGASVKISCKASGYTFTGYFMNWVKQSPGQSLEWIGRIHPYDGDTFYNQKFQGKATLTVDKSSNTAHMELLSLTSEDFAVYYCTRYDGSRAMDYWGQGTTVTVSS
VL: DIVLTQSPLSLAVSLGQPAIISCKASQSVSFAGTSLMHWYHQKPGQQPRLLIYRASNLEAGVPDRFSGSGSKTDFTLTISPVEAEDAATYYCQQSREYPYTFGGGTKLEIKR
modifications: D-Ala-L-Ala-PAB-DM1 linked through GMBS, about 3.5 DM/Ab
B2: conjugate 17g (antibody, human IgG1, kappa, V domains shown)
VH: QVQLVQSGAEVVKPGASVKISCKASGYTFTGYFMNWVKQSPGQSLEWIGRIHPYDGDTFYNQKFQGKATLTVDKSSNTAHMELLSLTSEDFAVYYCTRYDGSRAMDYWGQGTTVTVSS
VL: DIVLTQSPLSLAVSLGQPAIISCKASQSVSFAGTSLMHWYHQKPGQQPRLLIYRASNLEAGVPDRFSGSGSKTDFTLTISPVEAEDAATYYCQQSREYPYTFGGGTKLEIKR
modifications: thio-peptide-maytansinoid 14g linked through sulfo-GMBS to antibody amines (Example 4)
B3: conjugate 17h (antibody, human IgG1, kappa, V domains shown)
VH: QVQLVQSGAEVVKPGASVKISCKASGYTFTGYFMNWVKQSPGQSLEWIGRIHPYDGDTFYNQKFQGKATLTVDKSSNTAHMELLSLTSEDFAVYYCTRYDGSRAMDYWGQGTTVTVSS
VL: DIVLTQSPLSLAVSLGQPAIISCKASQSVSFAGTSLMHWYHQKPGQQPRLLIYRASNLEAGVPDRFSGSGSKTDFTLTISPVEAEDAATYYCQQSREYPYTFGGGTKLEIKR
modifications: thio-peptide-maytansinoid 14h linked through sulfo-GMBS to antibody amines (Example 4)
B4: conjugate 17i (antibody, human IgG1, kappa, V domains shown)
VH: QVQLVQSGAEVVKPGASVKISCKASGYTFTGYFMNWVKQSPGQSLEWIGRIHPYDGDTFYNQKFQGKATLTVDKSSNTAHMELLSLTSEDFAVYYCTRYDGSRAMDYWGQGTTVTVSS
VL: DIVLTQSPLSLAVSLGQPAIISCKASQSVSFAGTSLMHWYHQKPGQQPRLLIYRASNLEAGVPDRFSGSGSKTDFTLTISPVEAEDAATYYCQQSREYPYTFGGGTKLEIKR
modifications: thio-peptide-maytansinoid 14i linked through sulfo-GMBS to antibody amines (Example 4)
B5: M9346A-sGMBS-LDL-DM (conjugate 17c) (antibody, human IgG1, kappa, V domains shown)
VH: QVQLVQSGAEVVKPGASVKISCKASGYTFTGYFMNWVKQSPGQSLEWIGRIHPYDGDTFYNQKFQGKATLTVDKSSNTAHMELLSLTSEDFAVYYCTRYDGSRAMDYWGQGTTVTVSS
VL: DIVLTQSPLSLAVSLGQPAIISCKASQSVSFAGTSLMHWYHQKPGQQPRLLIYRASNLEAGVPDRFSGSGSKTDFTLTISPVEAEDAATYYCQQSREYPYTFGGGTKLEIKR
modifications: maytansinoid LDL-DM (compound 14c, L-Ala-D-Ala-L-Ala) linked through sulfo-GMBS to antibody amines, 3.7 mol LDL-DM/mol antibody

These binders were tested against folate receptor alpha (FRα) on cells (human, UniProt P15328 25-234) (assay: cell-based or functional assay).
folate receptor alpha (FRα) on cells, sequence (P15328 25-234): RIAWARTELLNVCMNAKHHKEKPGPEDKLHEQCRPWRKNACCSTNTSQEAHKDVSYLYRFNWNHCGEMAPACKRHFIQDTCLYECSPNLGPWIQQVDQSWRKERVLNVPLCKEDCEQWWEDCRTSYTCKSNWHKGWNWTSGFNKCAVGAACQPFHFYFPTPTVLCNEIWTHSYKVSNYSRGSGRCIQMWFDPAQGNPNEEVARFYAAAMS
In the case of B1, the “IC50, in vitro cytotoxicity (WST-8, 5 days), Igrov-1 cells, +Block” value (shortened to “IC50 … Igrov-1 cells, +Block”) is reported as 20 nM, the “IC50, in vitro cytotoxicity (WST-8, 5 days), Igrov-1 cells, ADC” value (“IC50 … Igrov-1 cells, ADC” below) is reported as 0.3 nM and the “IC50, in vitro cytotoxicity (WST-8, 5 days), Jeg-3 cells, +Block” value (shortened to “IC50 … Jeg-3 cells, +Block”) is reported as 10 nM. The “IC50, in vitro cytotoxicity (WST-8, 5 days), Jeg-3 cells, ADC” value (from here on “IC50 … Jeg-3 cells, ADC”) was 0.2 nM, the “IC50, in vitro cytotoxicity (WST-8, 5 days), KB cells, +Block” value (from here on “IC50 … KB cells, +Block”) was greater than 50 nM and the “IC50, in vitro cytotoxicity (WST-8, 5 days), KB cells, ADC” value (from here on “IC50 … KB cells, ADC”) was 0.2 nM. The “IC50, in vitro cytotoxicity (WST-8, 5 days), SKOV-6 cells, +Block” value (shortened to “IC50 … SKOV-6 cells, +Block”) was 10 nM and the “IC50, in vitro cytotoxicity (WST-8, 5 days), SKOV-6 cells, ADC” value (shortened to “IC50 … SKOV-6 cells, ADC”) was 0.9 nM. B2 was tested, and the “IC50 … Igrov-1 cells, +Block” value was greater than 50 nM, the “IC50 … Igrov-1 cells, ADC” value was 3 nM and the “IC50 … Jeg-3 cells, +Block” value was greater than 50 nM. The “IC50 … Jeg-3 cells, ADC” value was 0.5 nM, the “IC50 … KB cells, +Block” value was greater than 50 nM and the “IC50 … KB cells, ADC” value was 0.3 nM. For the same binder, the “IC50 … SKOV-6 cells, +Block” value was greater than 50 nM and the “IC50 … SKOV-6 cells, ADC” value was greater than 10 nM. B3 was tested, and the “IC50 … Igrov-1 cells, +Block” value was greater than 50 nM, the “IC50 … Igrov-1 cells, ADC” value was 30 nM and the “IC50 … Jeg-3 cells, +Block” value was greater than 50 nM. The “IC50 … Jeg-3 cells, ADC” value was 0.5 nM, the “IC50 … KB cells, +Block” value was greater than 50 nM and the “IC50 … KB cells, ADC” value was 0.4 nM. For the same binder, the “IC50 … SKOV-6 cells, +Block” value was greater than 50 nM and the “IC50 … SKOV-6 cells, ADC” value was greater than 10 nM. For B4, the “IC50 … Igrov-1 cells, +Block” value was greater than 50 nM, the “IC50 … Igrov-1 cells, ADC” value was 50 nM and the “IC50 … Jeg-3 cells, +Block” value was greater than 50 nM. The “IC50 … Jeg-3 cells, ADC” value was 0.7 nM, the “IC50 … KB cells, +Block” value was greater than 50 nM and the “IC50 … KB cells, ADC” value was 0.3 nM. For the same binder, the “IC50 … SKOV-6 cells, +Block” value was greater than 50 nM and the “IC50 … SKOV-6 cells, ADC” value was greater than 10 nM. For B5, the “IC50 … Igrov-1 cells, +Block” value was greater than 50 nM, the “IC50 … Igrov-1 cells, ADC” value was 7 nM and the “IC50 … Jeg-3 cells, +Block” value was greater than 50 nM. For the same binder, the “IC50 … Jeg-3 cells, ADC” value was 0.6 nM, the “IC50 … KB cells, +Block” value was greater than 50 nM and the “IC50 … KB cells, ADC” value was 0.3 nM. The “IC50 … SKOV-6 cells, +Block” value was greater than 50 nM and the “IC50 … SKOV-6 cells, ADC” value was greater than 10 nM.
